Source: PMC10120378
Read-outs that look alike come from different tables or passages of the source.

Legend:
Assay in all cases: fluorescence polarization
[1] = molecular target: T1, HUα2 P63A (Escherichia coli (MG1655-derived …, UniProt P0ACF0 1-90, P63A))
[2] = molecular target: T2, HUα2 wild-type (Escherichia coli (MG1655-derived …, UniProt P0ACF0 1-90))
[3] = molecular target: T2, HUα2 wild-type; remark: listed apart in the source
[4] = molecular target: T1, HUα2 P63A; remark: listed apart in the source

B1: cruciform DNA (structured_DNA)
DNA 1: CCTAGCAAGGGGCTGCTACCTTTGGTAGCAGCCTGAGCGGTGG
DNA 2: CCACCGCTCAACTCAACTGCTTTGCAGTTGAGTCCTTGCTAGG
[1]
  Kd: 0.352 µM
[2]
  Kd: 0.178 ± 0.022 µM

B2: linear DNA of random sequence (40 bp) (dsDNA)
DNA 1: CCGACTAAGTACATGTGAGAATTTTGCTGCCTTCGAACCT
DNA 2: AGGTTCGAAGGCAGCAAAATTCTCACATGTACTTAGTCGG
[3]
  Kd: 0.051 ± 0.004 µM
[4]
  binding result: binds
